B1: Interferon alpha/beta receptor 1 (Homo sapiens), P17181-1 (parent)
chain: MMVVLLGATTLVLVAVAPWVLSAAAGGKNLKSPQKVEVDIIDDNFILRWNRSDESVGNVTFSFDYQKTGMDNWIKLSGCQNITSTKCNFSSLKLNVYEEIKLRIRAEKENTSSWYEVDSFTPFRKAQIGPPEVHLEAEDKAIVIHISPGTKDSVMWALDGLSFTYSLVIWKNSSGVEERIENIYSRHKIYKLSPETTYCLKVKAALLTSWKIGVYSPVHCIKTTVENELPPPENIEVSVQNQNYVLKWDYTYANMTFQVQWLHAFLKRNPGNHLYKWKQIPDCENVKTTQCVFPQNVFQKGIYLLRVQASDGNNTSFWSEEIKFDTEIQAFLLPPVFNIRSLSDSFHIYIGAPKQSGNTPVIQDYPLIYEIIFWENTSNAERKIIEKKTDVTVPNLKPLTVYCVKARAHTMDEKLNKSSVFSDAVCEKTKPGNTSKIWLIVGICIALFALPFVIYAAKVFLRCINYVFFPSLKPSSSIDEYFSEQPLKNLLLSTSEEQIEKCFIIENISTIATVEETNQTDEDHKKYSSQTSQDSGNYSNEDESESKTSEELQQDFV

Variants of: B1
Conditions: with tyk2_human TYK2, P29597
Sequence of tyk2_human TYK2, P29597 (P29597 whole entry): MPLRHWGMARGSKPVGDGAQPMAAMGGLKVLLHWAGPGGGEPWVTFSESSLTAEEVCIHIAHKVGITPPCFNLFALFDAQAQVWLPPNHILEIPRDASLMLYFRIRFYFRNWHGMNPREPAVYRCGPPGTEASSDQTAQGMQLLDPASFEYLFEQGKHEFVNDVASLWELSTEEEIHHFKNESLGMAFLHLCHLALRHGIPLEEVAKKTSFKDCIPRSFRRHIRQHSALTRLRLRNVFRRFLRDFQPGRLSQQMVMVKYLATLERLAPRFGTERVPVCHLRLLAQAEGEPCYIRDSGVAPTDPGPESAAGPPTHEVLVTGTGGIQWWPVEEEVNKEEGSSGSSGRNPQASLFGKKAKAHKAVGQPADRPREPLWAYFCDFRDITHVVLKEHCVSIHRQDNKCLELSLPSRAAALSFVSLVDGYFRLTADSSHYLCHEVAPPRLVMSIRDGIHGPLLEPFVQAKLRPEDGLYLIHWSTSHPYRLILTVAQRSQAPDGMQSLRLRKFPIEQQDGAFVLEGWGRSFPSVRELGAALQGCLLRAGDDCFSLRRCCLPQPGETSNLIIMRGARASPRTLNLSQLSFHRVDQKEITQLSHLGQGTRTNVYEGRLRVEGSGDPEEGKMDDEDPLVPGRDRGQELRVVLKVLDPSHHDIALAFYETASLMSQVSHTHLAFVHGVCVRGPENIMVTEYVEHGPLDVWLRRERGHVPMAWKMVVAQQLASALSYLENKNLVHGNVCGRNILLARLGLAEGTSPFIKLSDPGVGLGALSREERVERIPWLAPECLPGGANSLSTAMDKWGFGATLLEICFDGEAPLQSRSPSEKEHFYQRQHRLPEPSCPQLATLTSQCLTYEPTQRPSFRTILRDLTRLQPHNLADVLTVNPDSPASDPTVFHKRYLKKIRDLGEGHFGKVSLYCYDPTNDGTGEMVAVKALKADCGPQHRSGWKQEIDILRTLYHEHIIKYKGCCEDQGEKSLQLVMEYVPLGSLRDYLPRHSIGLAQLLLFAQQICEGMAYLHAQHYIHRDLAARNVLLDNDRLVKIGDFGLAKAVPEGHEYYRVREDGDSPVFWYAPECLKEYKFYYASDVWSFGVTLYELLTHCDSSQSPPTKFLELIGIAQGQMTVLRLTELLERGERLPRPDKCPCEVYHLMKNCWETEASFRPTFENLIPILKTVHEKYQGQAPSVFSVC

Row | Variant | effect of a mutation on the interaction
1 | MMVVLLGATTLVLVAVAPWVLSAAAGGKNLKSPQKVEVDIIDDNFILRWNRSDESVGNVTFSFDYQKTGMDNWIKLSGCQNITSTKCNFSSLKLNVYEEIKLRIRAEKENTSSWYEVDSFTPFRKAQIGPPEVHLEAEDKAIVIHISPGTKDSVMWALDGLSFTYSLVIWKNSSGVEERIENIYSRHKIYKLSPETTYCLKVKAALLTSWKIGVYSPVHCIKTTVENELPPPENIEVSVQNQNYVLKWDYTYANMTFQVQWLHAFLKRNPGNHLYKWKQIPDCENVKTTQCVFPQNVFQKGIYLLRVQASDGNNTSFWSEEIKFDTEIQAFLLPPVFNIRSLSDSFHIYIGAPKQSGNTPVIQDYPLIYEIIFWENTSNAERKIIEKKTDVTVPNLKPLTVYCVKARAHTMDEKLNKSSVFSDAVCEKTKPGNTSKIWLIVGICIALFALPFVIYAAKVFLRCINYVFFPSLKPSSSIDEYFSEQPLKNLLLSTSEAQIEKCFIIENISTIATVEETNQTDEDHKKYSSQTSQDSGNYSNEDESESKTSEELQQDFV [E497A] | disrupting interaction strength
